In patent US20190030180A1 one finds fold change of EC50 with Gas6 pre-incubation against without Gas6 and maximal binding in presence of Gas6 (% of binding in absence of Gas6) data, which are given here for one molecule.

This assay has as its target human AXL (full length) (human) (UniProt P30530). Description: flow cytometry; A431 cells pre-incubated with 10 µg/mL Gas6.
Chain of UniProt P30530 (P30530 26-894 limits assumed): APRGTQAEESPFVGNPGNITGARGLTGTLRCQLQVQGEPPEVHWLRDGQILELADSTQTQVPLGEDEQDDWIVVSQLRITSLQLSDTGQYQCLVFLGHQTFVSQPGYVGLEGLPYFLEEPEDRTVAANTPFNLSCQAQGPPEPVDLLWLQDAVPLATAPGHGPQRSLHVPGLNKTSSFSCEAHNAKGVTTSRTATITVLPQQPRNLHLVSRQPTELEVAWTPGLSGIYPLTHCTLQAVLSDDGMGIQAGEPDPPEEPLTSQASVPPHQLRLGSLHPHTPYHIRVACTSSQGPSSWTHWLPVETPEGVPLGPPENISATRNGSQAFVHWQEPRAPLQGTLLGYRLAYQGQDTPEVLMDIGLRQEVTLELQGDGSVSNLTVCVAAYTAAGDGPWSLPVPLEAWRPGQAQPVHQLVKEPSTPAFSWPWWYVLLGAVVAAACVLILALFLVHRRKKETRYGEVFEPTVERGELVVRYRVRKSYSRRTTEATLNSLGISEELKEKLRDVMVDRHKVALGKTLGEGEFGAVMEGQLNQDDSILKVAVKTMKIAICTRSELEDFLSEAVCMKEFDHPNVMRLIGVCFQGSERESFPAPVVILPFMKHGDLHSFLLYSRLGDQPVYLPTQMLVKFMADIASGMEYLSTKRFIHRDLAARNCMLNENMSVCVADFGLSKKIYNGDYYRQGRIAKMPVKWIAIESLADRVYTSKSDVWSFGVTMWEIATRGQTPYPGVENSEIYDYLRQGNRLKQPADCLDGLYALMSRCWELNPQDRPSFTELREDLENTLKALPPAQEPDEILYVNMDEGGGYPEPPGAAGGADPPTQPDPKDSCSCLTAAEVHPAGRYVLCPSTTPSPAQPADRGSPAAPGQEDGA

B1: IgG1-YW327.6S2 (antibody, from another filing, V domains shown)
VH: EVQLVESGGGLVQPGGSLRLSCAASGFSLSGSWIHWVRQAPGKGLEWVGWINPYRGYAYYADSVKGRFTISADTSKNTAYLQMNSLRAEDTAVYYCAREYSGWGGSSVGYAMDYWGQGTLVTVSS
VL: DIQMTQSPSSLSASVGDRVTITCRASQDVSTAVAWYQQKPGKAPKLLIYSASFLYSGVPSRFSGSGSGTDFTLTISSLQPEDFATYYCQQSYTTPPTFGQGTKVEIK
Turning to B1, the fold change of EC50 with Gas6 pre-incubation against without Gas6 came to 21 fold and the maximal binding in presence of Gas6 (% of binding in absence of Gas6) is 19%.
